The values that follow come from patent US20100260754A1 (Eli Lilly, published 2010).

In assay [1] the target is T1, cynomolgus DKK-1 (SEQ ID NO: 30) (cynomolgus, UniProt O94907 32-265 (human entry), limits assumed).
T1 chain: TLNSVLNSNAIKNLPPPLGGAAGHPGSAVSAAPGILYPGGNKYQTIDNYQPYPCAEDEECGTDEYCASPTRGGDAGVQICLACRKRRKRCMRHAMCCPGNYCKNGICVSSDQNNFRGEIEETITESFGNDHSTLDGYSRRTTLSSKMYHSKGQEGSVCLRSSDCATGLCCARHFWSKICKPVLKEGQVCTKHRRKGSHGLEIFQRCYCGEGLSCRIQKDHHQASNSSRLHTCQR
Kind of assay: cell-based or functional assay.

For assay [2], the target named is T2, rat Dkk-1 (SEQ ID NO: 31) (rat, UniProt O54908 32-272 (mouse entry), limits assumed).
T2 chain: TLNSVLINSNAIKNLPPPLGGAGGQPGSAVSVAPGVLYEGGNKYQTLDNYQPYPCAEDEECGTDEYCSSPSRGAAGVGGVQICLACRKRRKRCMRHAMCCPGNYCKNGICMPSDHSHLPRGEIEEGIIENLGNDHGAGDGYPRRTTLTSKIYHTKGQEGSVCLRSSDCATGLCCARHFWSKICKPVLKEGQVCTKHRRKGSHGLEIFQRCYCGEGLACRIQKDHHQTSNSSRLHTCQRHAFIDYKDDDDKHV
Kind of assay: cell-based or functional assay.

For assay [3], the target named is T3, rabbit DKK-1 (SEQ ID NO: 32) (rabbit, UniProt O94907 32-265 (human entry), limits assumed).
T3 chain: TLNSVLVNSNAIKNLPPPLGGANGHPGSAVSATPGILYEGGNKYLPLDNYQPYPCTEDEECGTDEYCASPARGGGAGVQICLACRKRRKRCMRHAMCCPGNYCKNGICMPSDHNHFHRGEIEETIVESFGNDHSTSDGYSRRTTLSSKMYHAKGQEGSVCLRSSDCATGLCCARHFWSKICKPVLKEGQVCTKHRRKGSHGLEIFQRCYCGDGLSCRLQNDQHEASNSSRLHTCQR
In words: cell-based or functional assay.

Assay [4] deals with T4, human DKK-1 (SEQ ID NO: 29) (human, UniProt O94907 32-266).
T4 sequence: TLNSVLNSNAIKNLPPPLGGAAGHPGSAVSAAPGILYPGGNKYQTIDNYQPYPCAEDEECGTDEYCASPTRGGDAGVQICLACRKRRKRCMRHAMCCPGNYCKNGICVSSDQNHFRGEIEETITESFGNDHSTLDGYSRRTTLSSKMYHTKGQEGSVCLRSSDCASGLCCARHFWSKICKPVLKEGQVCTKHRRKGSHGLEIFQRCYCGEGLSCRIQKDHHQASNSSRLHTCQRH
Kind of assay: cell-based or functional assay.

Assay [5] addresses T5, mouse DKK-1 (SEQ ID NO: 33) (mouse, UniProt O54908 32-272).
T5 construct: also called His-tagged DKK-1; Murine
T5 sequence: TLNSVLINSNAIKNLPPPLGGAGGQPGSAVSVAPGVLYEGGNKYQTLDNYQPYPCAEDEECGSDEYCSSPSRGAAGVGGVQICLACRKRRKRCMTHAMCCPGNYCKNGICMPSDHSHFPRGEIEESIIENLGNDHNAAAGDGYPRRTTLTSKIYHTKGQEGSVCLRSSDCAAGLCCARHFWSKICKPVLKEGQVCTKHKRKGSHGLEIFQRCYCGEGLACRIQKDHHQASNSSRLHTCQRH
In words: KinExA solution equilibrium, 37 C, His-tagged DKK-1. As for the experimental part:
(§1) To establish a binding equilibrium, a constant concentration of antibody is mixed with varying concentrations of His-tagged DKK-1 (SEQ ID NO:29, SEQ ID NO:30, SEQ ID NO:31, SEQ ID NO:32, or SEQ ID NO:33) (1 nM-1 pM range) in PBS (pH 7.4)+1 mg/mL bovine serum albumin (“BSA”) or buffer alone and incubated for several days at 37° C. Two sets of binding reactions are set up, one set at low concentration of antibody (3 pM) and one set at high concentration of antibody (30 or 50 pM).
(§2) After establishing equilibrium, a KinExA 3000 instrument (Sapidyne Inst. Inc.) is used to probe for the fraction of ‘free’ (unbound) antibody. Briefly, His-tagged DKK-1 is covalently coupled to NHS-activated Sepharose 4 Fast Flow beads (GE Healthcare) which are packed by the instrument to create a small column. The pre-equilibrated mixtures of antibody+His-tagged DKK-1 are passed over the beads to capture only free antibody. The amount of free antibody captured is proportional to the free concentration in the equilibrated samples, and is detected by injection of a fluorescently labeled secondary antibody. Data sets from low and high concentrations of antibody are fit globally using n-curve analysis in the KinExA software. This fitting returns a Kd value as well as the 95% confidence interval.

For assay [6], the target named is T1, cynomolgus DKK-1 (SEQ ID NO: 30). The description is as above. Here is the method:
as §1, §2

Assay [7] concerns the target T2, rat Dkk-1 (SEQ ID NO: 31). Described as above. Here is the method: as §1, §2
In assay [8] the target is T3, rabbit DKK-1 (SEQ ID NO: 32). The assay is described as above. Here is the method: as §1, §2
The target in assay [9] is T4, human DKK-1 (SEQ ID NO: 29). The assay is described as above. Here is the method: as §1, §2

B1: Antibody II (antibody, human IgG4 S228P, kappa, F234A L235A, V domains shown)
VH: EVQLVESGGGLVQPGGSLRLSCAASGFTFSSYTMSWVRQAPGKGLEWVATISGGGFGTYYPDSVKGRFTISRDNAKNSLYLQMNSLRAEDTAVYYCARPGYNNYYFDIWGQGTTVTVSS
VL: EIVLTQSPATLSLSPGERATLSCHASDSISNSLHWYQQKPGQAPRLLIYYARQSIQGIPARFSGSGSGTDFTLTISSLEPEDFAVYYCQQSESWPLHFGGGTKVEIKR
notes: also called human engineered DKK-1 antibody
For B1, the “EC50, block of DKK-1-mediated inhibition of alkaline phosphatase in C2C12 cells” value worked out at 6.4 nM in assay [1], 2.9 nM in assay [2], 6 nM in assay [3] and 9.8 nM in assay [4]. The Kd worked out at 7 pM in assay [5]; 0.014 nM in [6]; 8.4 pM in assay [7]; 0.017 nM in [8]; 3.3 pM in [9].
